Assay results from the Human Domainome abundance scans (Beltran et al. 2025).

B1: Retinoic acid receptor beta, residues 85 to 161; numbered along this chain, P10826 (parent)
chain: YKPCFVCQDKSSGYHYGVSACEGCKGFFRRSIQKNMIYTCHRDKNCVINKVTRNRCQYCRLQKCFEVGMSKESVRND

Variants of: B1
Assay: abundance fitness (aPCA) (normalised: wild type 0, dead -1); higher = more abundant; growth selection in yeast, the domain comes from the species named
Settings: Homo sapiens

Abundance fitness of substitutions, site by site:
E66: T 0.008 | D 0.096 | A -0.105 | F -0.036 | I -0.092 | Y -0.136 | M 0.082 | V -0.032 | C -0.153 | S -0.078 | N -0.028 | P -0.595 | L -0.039 | W -0.139 | R 0.011 | G -0.014 | Q -0.011
C56: E -0.703 | T -0.668 | H -0.581 | Y -0.567 | G -0.773 | L -0.907 | K -0.978 | P -0.763 | F -0.946 | M -0.768 | R -0.928 | I -1.05 | N -0.953 | D -0.623 | A -1.16 | W -0.893 | S -0.749
R60: W 0.114 | S -0.583 | E -0.598 | M 0.199 | C -0.155 | D -0.901 | I -0.653 | K -0.039 | V -0.369 | P -0.722 | G -0.491 | Y -0.002 | L 0.21 | N -0.845 | T -0.001 | Q -0.003
N49: A -0.284 | F -0.368 | Q -0.328 | K -0.345 | T 0.017 | S -0.116 | G -0.255 | Y -0.37 | L -0.218 | V -0.546 | H -0.372 | P -0.431 | R -0.43 | E 0.003 | W -0.327 | C -0.598 | D 0.235 | I -0.239
V67: C -0.172 | A -0.012 | D -0.8
K50: T 0.125 | V 0.208 | W 0.25 | Q 0.158 | G 0.153 | I 0.244 | N 0.021 | D 0.225 | H 0.094 | Y 0.126 | M 0.124 | A 0.145 | R 0.153 | S 0.231 | C -0.218 | P 0.09
I48: G -0.605 | A -0.531 | L -0.096 | C -0.72 | F -0.078 | V -0.065 | P -0.417 | M 0.042 | S -0.48 | H -0.505 | N -0.376 | W -0.647 | T -0.161
L61: K -0.946 | C -0.657 | M -0.023 | G -0.605 | V -0.499 | Q -0.336 | E -0.635 | D -0.516 | I -0.207 | P -0.754 | Y -0.181 | H -0.503 | A -0.591 | F -0.13 | W -0.605 | R -0.8 | S -0.995
R53: V 0.211 | W -0.026 | N 0.123 | P 0.103 | C 0.084 | H 0.016 | G 0.003 | M 0.195 | I 0.127 | S 0.126 | L 0.148 | F 0.057 | A 0.183 | Y 0.116 | T -0.002 | E 0.102 | D -0.018 | K 0.071 | Q 0.19
Q57: P 0.141 | E 0.268 | D 0.353 | S 0.144 | A 0.158 | H 0.079 | V -0.385 | N -0.021 | C 0.078 | G 0.2 | Y 0.163 | T -0.251 | W 0.104 | K -0.245
C64: V -0.628 | D -0.996 | K -0.885 | A -0.329 | N -0.969 | P -0.689 | S -0.461 | G -0.658 | L -0.734 | H -0.646 | E -0.799 | Y -1.17 | R -0.732 | M -0.412 | I -0.729 | T -0.769 | Q -0.426
